This sample holds only a part of the variants without activity.
B1: TPR 5TU (parent)
chain: GGAUCUUCUCGAUCUAACAAAAAAGACAAAUCUGCCACAAAGCUUGAGAGCAUCUUCGGAUGCAGAGGCGGCAGCCUUCGGUGGCGCGAUAGCGCCAACGUUCUCAACUAUGACACGCAAAACGCGUGCUCCGUUGAAUGGAGUUUAUCAUG

Variants of: B1
Test: polymerase ribozyme fitness, log enrichment relative to wild type (log ratio); higher = more active; in vitro selection for triplet polymerase activity
In short: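 Fitness measures genotype enrichment against wild-type enrichment on a logarithmic scale, with inverse-variance-weighted averaging of replicates. The logarithm is base 2, and genotypes were kept only with ≥10 input reads and ≥1 read per output in Illumina sequencing. The sequenced libraries came from one triplicate in vitro selection round, including frozen incubation at −7 °C, of PCR-built, transcribed mutant libraries of each subunit of a heterodimeric triplet polymerase ribozyme.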
With G48U U146G the “polymerase ribozyme fitness (log ratio)” value was -1.42.
In the case of G50A C51G G83U G84A G141U, the “polymerase ribozyme fitness (log ratio)” value is reported as ≤ -4.2.
For A47G A147U, the “polymerase ribozyme fitness (log ratio)” value was 0.466.
With A49C G81A G92U C93U G140U G152C the “polymerase ribozyme fitness (log ratio)” value was ≤ -4.2.
In the case of A47G U90C G92C G128U A137C A147C, the “polymerase ribozyme fitness (log ratio)” value is reported as ≤ -4.2.
In the case of A49U G133U, the “polymerase ribozyme fitness (log ratio)” value is reported as -3.93.
For G48C C85U U102G U104A C118U C125A, the “polymerase ribozyme fitness (log ratio)” value was -4.14.
For A49C G124U, the “polymerase ribozyme fitness (log ratio)” value was ≤ -4.2.
For G50A G70A C75A, the “polymerase ribozyme fitness (log ratio)” value was ≤ -4.2.
For A49U G58C C75G C118G G124A, the “polymerase ribozyme fitness (log ratio)” value was ≤ -4.2.
With A49U U55C U56A A73U C93U G117C the “polymerase ribozyme fitness (log ratio)” value was ≤ -4.2.
For A47G U82G C95G, the “polymerase ribozyme fitness (log ratio)” value was -3.89.
For A47G U90A, the “polymerase ribozyme fitness (log ratio)” value was -3.82.
In the case of G48A C79A C85G A110U G124A, the “polymerase ribozyme fitness (log ratio)” value is reported as ≤ -4.2.
For G48U U56A G67A A73C G86U A107G, the “polymerase ribozyme fitness (log ratio)” value was ≤ -4.2.
For A49C C54A U78C C85U, the “polymerase ribozyme fitness (log ratio)” value was -3.91.
For A47G C51G C76U C87U U104G A107U U151C, the “polymerase ribozyme fitness (log ratio)” value was ≤ -4.2.
In the case of A47U U55G G68A G84U U151A, the “polymerase ribozyme fitness (log ratio)” value is reported as ≤ -4.2.
In the case of A47U G81A C125G A150C, the “polymerase ribozyme fitness (log ratio)” value is reported as ≤ -4.2.
In the case of G50A G136U, the “polymerase ribozyme fitness (log ratio)” value is reported as -2.96.
With A49C U134G the “polymerase ribozyme fitness (log ratio)” value was ≤ -4.2.
With A47U C85U A150C the “polymerase ribozyme fitness (log ratio)” value was ≤ -4.2.
In the case of A47U A49G A98G U101A, the “polymerase ribozyme fitness (log ratio)” value is reported as ≤ -4.2.
In the case of G50A G133C, the “polymerase ribozyme fitness (log ratio)” value is reported as -3.28.
With G50C A120U A121C the “polymerase ribozyme fitness (log ratio)” value was -2.61.
In the case of A47U G62A U127C G133U, the “polymerase ribozyme fitness (log ratio)” value is reported as ≤ -4.2.
In the case of A49G A66G G71C C87G C95G A120G G124C A142U, the “polymerase ribozyme fitness (log ratio)” value is reported as ≤ -4.2.
For G50C C87A C114G A150C, the “polymerase ribozyme fitness (log ratio)” value was ≤ -4.2.
For G48A C69G G84U, the “polymerase ribozyme fitness (log ratio)” value was -2.41.
In the case of A47U C76U A119C U139G, the “polymerase ribozyme fitness (log ratio)” value is reported as -2.8.
With A47G U61G A142G the “polymerase ribozyme fitness (log ratio)” value was -2.82.
For A49G A52C G86C, the “polymerase ribozyme fitness (log ratio)” value was -3.61.
In the case of G48A C57A, the “polymerase ribozyme fitness (log ratio)” value is reported as 0.284.
In the case of G50A G88A C95U C123G U139G U151G, the “polymerase ribozyme fitness (log ratio)” value is reported as ≤ -4.2.
With A49U G59A C85A the “polymerase ribozyme fitness (log ratio)” value was -3.41.
With A49U A52G C96U C99G the “polymerase ribozyme fitness (log ratio)” value was ≤ -4.2.
With A47G C69A A122G the “polymerase ribozyme fitness (log ratio)” value was -3.43.
For A49C A64U G67U G68A G71A, the “polymerase ribozyme fitness (log ratio)” value was ≤ -4.2.
In the case of G50A C54U U56A G70A C87G U90A C95G U109G C114G G141U, the “polymerase ribozyme fitness (log ratio)” value is reported as ≤ -4.2.
For A49C U55G A60U G65A G74C U77A, the “polymerase ribozyme fitness (log ratio)” value was ≤ -4.2.
For A47C U53A C85G U139A, the “polymerase ribozyme fitness (log ratio)” value was ≤ -4.2.
In the case of A47G C87A U90G A98G C99A G117C C149A, the “polymerase ribozyme fitness (log ratio)” value is reported as ≤ -4.2.
For A49C G84U A107G U111G A120G, the “polymerase ribozyme fitness (log ratio)” value was ≤ -4.2.
For G50C A89G C99U A122G, the “polymerase ribozyme fitness (log ratio)” value was ≤ -4.2.
For A49U G58C G124U, the “polymerase ribozyme fitness (log ratio)” value was -1.3.
In the case of A49U U55A U56G, the “polymerase ribozyme fitness (log ratio)” value is reported as -1.76.
In the case of A49C A66U, the “polymerase ribozyme fitness (log ratio)” value is reported as ≤ -4.2.
For A49C A66G, the “polymerase ribozyme fitness (log ratio)” value was ≤ -4.2.
For A47C C105A, the “polymerase ribozyme fitness (log ratio)” value was -1.02.
In the case of A49C C96G, the “polymerase ribozyme fitness (log ratio)” value is reported as -3.45.
With A47U C96A G126A C129A A137U the “polymerase ribozyme fitness (log ratio)” value was ≤ -4.2.
For G48U C85U, the “polymerase ribozyme fitness (log ratio)” value was -0.485.
For A49U C76A U77G C95G C96U C108U A142G, the “polymerase ribozyme fitness (log ratio)” value was ≤ -4.2.
In the case of A49C A64U C87A U104G G143A, the “polymerase ribozyme fitness (log ratio)” value is reported as ≤ -4.2.
In the case of G48C C85U, the “polymerase ribozyme fitness (log ratio)” value is reported as -1.95.
With A49G U53C C114U the “polymerase ribozyme fitness (log ratio)” value was -2.54.
With A49U G50A the “polymerase ribozyme fitness (log ratio)” value was -0.047.
With A47U C87U A91U C95U C114G A120C the “polymerase ribozyme fitness (log ratio)” value was ≤ -4.2.
With A49G G50A G84A A97G the “polymerase ribozyme fitness (log ratio)” value was -3.11.
With A47C U53A C95U G136C the “polymerase ribozyme fitness (log ratio)” value was -3.62.
In the case of A49G U53A G59A A142U, the “polymerase ribozyme fitness (log ratio)” value is reported as -2.64.
In the case of A49G C69U, the “polymerase ribozyme fitness (log ratio)” value is reported as -1.39.
In the case of A49U C51A U55G C95A, the “polymerase ribozyme fitness (log ratio)” value is reported as -2.79.
In the case of G48C G59A C85U C129A, the “polymerase ribozyme fitness (log ratio)” value is reported as -4.08.
For A49C C57U G74U U90A C93G C95U C103G A138C, the “polymerase ribozyme fitness (log ratio)” value was ≤ -4.2.
With A47U C95U A115G the “polymerase ribozyme fitness (log ratio)” value was -2.68.
With A49G C51G U78C C96G the “polymerase ribozyme fitness (log ratio)” value was -4.14.
For A47G G50C G71C G94A U134C, the “polymerase ribozyme fitness (log ratio)” value was ≤ -4.2.
With G50C C87U A113C C116A G143U U145C the “polymerase ribozyme fitness (log ratio)” value was ≤ -4.2.
With G50C A60G the “polymerase ribozyme fitness (log ratio)” value was -2.31.
For A47U U77C, the “polymerase ribozyme fitness (log ratio)” value was -4.09.
With G48A C75U C87A G143A the “polymerase ribozyme fitness (log ratio)” value was ≤ -4.2.
With A49G G50U C87G U144G the “polymerase ribozyme fitness (log ratio)” value was ≤ -4.2.
In the case of G50C G68U C85U G92U A106G, the “polymerase ribozyme fitness (log ratio)” value is reported as ≤ -4.2.
With G48A G62A G68C U78G C87A A91U A98U the “polymerase ribozyme fitness (log ratio)” value was ≤ -4.2.
For G48A G86C C123A C125G, the “polymerase ribozyme fitness (log ratio)” value was -3.94.
In the case of G48A G62A A73U A91G C95G U139A A142C, the “polymerase ribozyme fitness (log ratio)” value is reported as ≤ -4.2.
With A47G G59C U61A G92C G141A U148C the “polymerase ribozyme fitness (log ratio)” value was ≤ -4.2.
For G50A C118U A122G A137G A147U, the “polymerase ribozyme fitness (log ratio)” value was -2.53.
In the case of G48C G59C G92U C99G A106U, the “polymerase ribozyme fitness (log ratio)” value is reported as ≤ -4.2.
In the case of G48A A150U, the “polymerase ribozyme fitness (log ratio)” value is reported as -0.592.
For A47U A89G C131A, the “polymerase ribozyme fitness (log ratio)” value was ≤ -4.2.
For A49G G88U C96G U144C U148C U151G, the “polymerase ribozyme fitness (log ratio)” value was ≤ -4.2.

— the RNAGym collection of RNA variant scans (doi:10.1073/pnas.2313332121)
